The target in the test is human factor H (human, UniProt P08603 19-1231). The test is described as follows: ELISA. For orientation: In an ELISA, binding on a coated surface is turned into a signal by an enzyme label.

These results are taken from PMC11565809 (bioRxiv, 2024).

human factor H, sequence (P08603 19-1231): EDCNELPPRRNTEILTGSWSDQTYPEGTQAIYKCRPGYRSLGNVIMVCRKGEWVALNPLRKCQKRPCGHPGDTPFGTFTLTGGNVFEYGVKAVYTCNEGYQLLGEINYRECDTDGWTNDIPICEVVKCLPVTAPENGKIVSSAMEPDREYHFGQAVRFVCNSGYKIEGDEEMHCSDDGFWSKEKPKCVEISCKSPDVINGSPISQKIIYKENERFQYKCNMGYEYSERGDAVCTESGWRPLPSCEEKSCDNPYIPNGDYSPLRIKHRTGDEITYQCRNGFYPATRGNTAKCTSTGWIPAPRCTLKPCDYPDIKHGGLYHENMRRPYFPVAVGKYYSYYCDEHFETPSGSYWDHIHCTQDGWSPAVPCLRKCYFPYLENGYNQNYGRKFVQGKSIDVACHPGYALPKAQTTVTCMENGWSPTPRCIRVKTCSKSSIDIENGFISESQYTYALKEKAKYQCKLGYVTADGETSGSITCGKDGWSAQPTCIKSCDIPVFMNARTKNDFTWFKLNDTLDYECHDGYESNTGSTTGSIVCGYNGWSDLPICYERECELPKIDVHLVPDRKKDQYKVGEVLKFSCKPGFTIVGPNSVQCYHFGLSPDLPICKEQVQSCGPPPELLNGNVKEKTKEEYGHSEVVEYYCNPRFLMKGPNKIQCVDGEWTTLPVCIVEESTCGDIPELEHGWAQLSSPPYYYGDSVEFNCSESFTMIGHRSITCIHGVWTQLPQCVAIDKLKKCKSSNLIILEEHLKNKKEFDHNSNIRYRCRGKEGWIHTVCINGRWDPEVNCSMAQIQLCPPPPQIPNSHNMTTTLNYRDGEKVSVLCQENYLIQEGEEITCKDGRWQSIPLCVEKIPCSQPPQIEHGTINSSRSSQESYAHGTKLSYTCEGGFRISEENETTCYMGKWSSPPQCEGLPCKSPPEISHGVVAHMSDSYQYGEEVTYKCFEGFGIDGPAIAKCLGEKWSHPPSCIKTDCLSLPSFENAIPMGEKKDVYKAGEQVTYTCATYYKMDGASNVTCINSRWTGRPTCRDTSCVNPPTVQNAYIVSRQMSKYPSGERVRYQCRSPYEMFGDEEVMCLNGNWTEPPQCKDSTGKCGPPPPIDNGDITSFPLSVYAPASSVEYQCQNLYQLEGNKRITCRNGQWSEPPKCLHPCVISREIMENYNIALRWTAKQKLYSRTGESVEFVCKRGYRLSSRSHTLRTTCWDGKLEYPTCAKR

B1: histidine-tagged CspZ (natural protein, B. burgdorferi)
chain: RLNQRNINELKIFVEKAKYYSIKLDAIYNECTGAYNDIMTYSEGTFSDQSKVNQAISIFKKDNKIVNKFKELEKIIEEYKPMFLSKLIDDFAIELDQAVDNDVSNARHVADSYKKLRKSVVLAYIESFDVISSKFVDSKFVEASKKFVNKAKEFVEENDLIALECIVKTIGDMVNDREINSRSRYNNFYKKEADFLGAAVELEGAYKAIKQTLL
As for B1, the binding result is reported as “binds”.
